Source: paper PMC5499601 (Nucleic Acids Research, 2017)

Columns and labels:
Test in all cases: EMSA
[1] = target: T1, BsSpo0J Q61A (UniProt P26497 1-282, Q61A)
T1 sequence: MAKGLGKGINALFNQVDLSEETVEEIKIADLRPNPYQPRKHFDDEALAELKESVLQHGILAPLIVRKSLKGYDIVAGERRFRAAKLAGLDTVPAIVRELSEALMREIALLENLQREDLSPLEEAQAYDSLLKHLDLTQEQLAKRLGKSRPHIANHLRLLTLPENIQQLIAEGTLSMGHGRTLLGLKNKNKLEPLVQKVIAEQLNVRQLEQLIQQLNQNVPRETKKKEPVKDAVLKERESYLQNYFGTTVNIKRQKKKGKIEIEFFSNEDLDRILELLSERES

[2] = target: T2, BsSpo0J R82A (UniProt P26497 1-282, R82A)
T2 sequence: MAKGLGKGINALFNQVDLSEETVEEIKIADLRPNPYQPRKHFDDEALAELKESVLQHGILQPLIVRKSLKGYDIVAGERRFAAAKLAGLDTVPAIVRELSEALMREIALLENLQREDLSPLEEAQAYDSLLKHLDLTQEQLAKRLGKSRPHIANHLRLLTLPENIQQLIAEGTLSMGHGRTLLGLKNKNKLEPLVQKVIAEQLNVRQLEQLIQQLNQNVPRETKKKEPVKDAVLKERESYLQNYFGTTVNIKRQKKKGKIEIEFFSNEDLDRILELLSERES

[3] = target: T3, BsSpo0J R39A (UniProt P26497 1-282, R39A)
T3 sequence: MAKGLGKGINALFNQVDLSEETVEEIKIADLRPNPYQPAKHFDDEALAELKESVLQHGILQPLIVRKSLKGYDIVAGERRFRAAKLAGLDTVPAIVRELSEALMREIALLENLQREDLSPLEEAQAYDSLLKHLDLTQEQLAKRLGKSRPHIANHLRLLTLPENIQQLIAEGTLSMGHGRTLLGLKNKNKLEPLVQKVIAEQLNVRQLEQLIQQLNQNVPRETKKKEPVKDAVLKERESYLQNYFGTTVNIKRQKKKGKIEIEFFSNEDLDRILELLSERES

[4] = target: T4, BsSpo0J L60E (UniProt P26497 1-282, L60E)
T4 sequence: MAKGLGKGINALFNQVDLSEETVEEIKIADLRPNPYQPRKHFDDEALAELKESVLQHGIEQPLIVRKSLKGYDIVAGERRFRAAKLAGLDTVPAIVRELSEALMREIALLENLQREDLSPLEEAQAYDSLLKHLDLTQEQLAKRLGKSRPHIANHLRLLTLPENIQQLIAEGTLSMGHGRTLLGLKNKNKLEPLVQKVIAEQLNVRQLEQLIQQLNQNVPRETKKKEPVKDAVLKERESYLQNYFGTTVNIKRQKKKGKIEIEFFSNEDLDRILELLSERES

[5] = target: T5, BsSpo0J F81A (UniProt P26497 1-282, F81A)
T5 sequence: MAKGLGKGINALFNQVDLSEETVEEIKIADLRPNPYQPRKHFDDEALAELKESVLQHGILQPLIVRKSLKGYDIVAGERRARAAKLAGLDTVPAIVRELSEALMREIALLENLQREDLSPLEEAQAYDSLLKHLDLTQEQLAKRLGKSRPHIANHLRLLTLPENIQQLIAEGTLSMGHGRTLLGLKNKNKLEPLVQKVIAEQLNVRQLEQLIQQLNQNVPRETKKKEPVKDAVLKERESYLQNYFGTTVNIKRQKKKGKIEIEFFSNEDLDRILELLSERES

[6] = target: T6, BsSpo0J Q140A (UniProt P26497 1-282, Q140A)
T6 sequence: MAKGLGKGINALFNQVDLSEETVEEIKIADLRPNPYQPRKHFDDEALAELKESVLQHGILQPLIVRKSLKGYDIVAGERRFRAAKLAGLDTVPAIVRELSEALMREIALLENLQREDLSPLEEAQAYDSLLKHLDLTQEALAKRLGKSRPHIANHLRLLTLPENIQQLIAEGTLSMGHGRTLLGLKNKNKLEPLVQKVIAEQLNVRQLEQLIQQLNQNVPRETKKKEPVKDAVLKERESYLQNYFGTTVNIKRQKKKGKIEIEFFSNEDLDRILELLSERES

[7] = target: T7, BsSpo0J R105E (UniProt P26497 1-282, R105E)
T7 sequence: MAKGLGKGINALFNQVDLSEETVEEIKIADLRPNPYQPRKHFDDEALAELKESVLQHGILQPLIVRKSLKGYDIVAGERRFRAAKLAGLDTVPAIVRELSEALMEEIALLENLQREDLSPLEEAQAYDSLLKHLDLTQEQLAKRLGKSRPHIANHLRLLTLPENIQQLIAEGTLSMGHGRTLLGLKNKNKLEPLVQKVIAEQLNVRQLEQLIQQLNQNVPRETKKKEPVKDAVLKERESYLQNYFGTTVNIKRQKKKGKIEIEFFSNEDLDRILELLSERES

[8] = target: T8, BsSpo0J Q140R (UniProt P26497 1-282, Q140R)
T8 sequence: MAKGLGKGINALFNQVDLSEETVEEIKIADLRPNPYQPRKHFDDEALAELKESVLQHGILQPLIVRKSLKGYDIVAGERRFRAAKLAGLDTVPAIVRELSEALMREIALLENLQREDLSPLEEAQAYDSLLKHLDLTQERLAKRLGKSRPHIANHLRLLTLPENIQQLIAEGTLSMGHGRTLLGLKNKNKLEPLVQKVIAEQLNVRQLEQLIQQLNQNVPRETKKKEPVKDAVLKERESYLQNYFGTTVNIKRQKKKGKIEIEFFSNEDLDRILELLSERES

[9] = target: T9, BsSpo0J WT (UniProt P26497 1-282)
T9 sequence: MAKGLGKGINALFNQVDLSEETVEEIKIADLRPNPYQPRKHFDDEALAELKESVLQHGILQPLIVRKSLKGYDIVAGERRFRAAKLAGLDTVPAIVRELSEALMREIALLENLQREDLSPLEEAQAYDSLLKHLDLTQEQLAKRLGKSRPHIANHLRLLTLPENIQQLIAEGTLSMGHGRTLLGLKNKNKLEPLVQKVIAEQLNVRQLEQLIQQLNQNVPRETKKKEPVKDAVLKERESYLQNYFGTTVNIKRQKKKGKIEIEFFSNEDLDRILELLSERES

Measured: binding result

B1: 24-bp parS (dsDNA)
DNA 1: AGAATGTTCCACGTGAAACAAAGA
DNA 2: TCTTTGTTTCACGTGGAACATTCT
binds: [1] | [2] | [3] | [4] | [5] | [6] | [7] | [8] | [9]
